From publication PMC4132731, “Crystal structure of RNase H3–substrate complex reveals parallel evolution of RNA/DNA hybrid recognition” come the findings set out here.

For the series, the target named is T1, Ta-RNase H3 D78N (Thermovibrio ammonificans, UniProt E8T217 1-270, D78N).
T1 sequence: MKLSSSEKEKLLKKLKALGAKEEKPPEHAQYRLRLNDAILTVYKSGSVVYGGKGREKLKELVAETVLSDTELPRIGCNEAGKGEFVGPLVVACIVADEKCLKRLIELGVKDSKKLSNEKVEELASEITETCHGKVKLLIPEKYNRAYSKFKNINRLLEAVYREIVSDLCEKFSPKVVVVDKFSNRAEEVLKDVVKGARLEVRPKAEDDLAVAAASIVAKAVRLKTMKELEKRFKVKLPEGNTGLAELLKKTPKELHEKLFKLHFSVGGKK
As to the kind of experiment: X-ray crystallography (2.1 A); Mg2+ (metal ion A only); sulfate; EMSA: 10% native TAE polyacrylamide gel, binding buffer not given in the material; crystals: 0.2 M ammonium sulfate, 0.1 M BisTris pH 5.5, 25% PEG 3350, 10 mM spermine tetrahydrochloride, protein:substrate 1:1.2. As to conditions: protein: recombinant; tags: N-terminal His-SUMO tag removed with SENP; extra N-terminal Ser0 before Met1 (cloning artifact); blunt. (In general: A gel shift assay detects complexes by their altered migration in electrophoresis.)

B1: 19-bp RNA/DNA hybrid (DNA:RNA)
RNA: GAGUGCGACACCUGAUUCC
DNA: GGAATCAGGTGTCGCACTC
With B1, the binding result is reported as “binds”.
